Laboratory results: paper PMC11094075

Molecular target: HA-Ago2K212A, in Ago2-knockout A549 and HCC1806 cells (human) (UniProt Q9UKV8)
Assay: co-IP; Ago2-knockout A549 and HCC1806 cells expressing HA-Ago2Wt, HA-Ago2K212A or HA-Ago2K212R; IP with anti-HA, blot for endogenous CAV1; ratio pCAV1/pHA; vehicle or TM (10 µM)

Caveolin-1 (CAV1), endogenous (from UniProt Q03135 1-178) (natural protein)
percent decrease of co-precipitated CAV1 per precipitated HA-Ago2 (pCAV1/pHA) against HA-Ago2Wt: 46%
